Assays:
[1] = Substrate specificity, reducing end assay; type: biochemical; details: in % activity of chitin powder; 16 h at optimum conditions, 50 mg/ml substrate
Protocol: (§1) Different chitinous substrates were tested to assess the substrate affinity of the novel chitinases relative to untreated chitin powder. […] As expected, the conversion of colloidal chitin is more efficient compared to chitin powder as it provides an overall smaller particle size and thereby larger surface area. Chitosan powder (degree of acetylation: 15%) was also degraded efficiently and high chitosanase activity was observed especially for C1, C3, C4 and C5. Merely basal activity was detected when cellulose was utilized as a substrate for all enzymes.
(§2) Enzyme samples were incubated at different temperature (10-60° C., 10° C. increment) and pH (4-11, increment 1) using different buffer systems (Acetate, Tris-HCl, MES, total molar concentration 100 mM), as well as NaCl content (0, 1. 2.5, 5, 10 and 20% w/v) to determine optimum reaction conditions. All experiments were carried out at 1.0 ml scale using 2 μM of the respective enzymes and a 5% (wv) suspension of chitin powder extracted from shrimp shells (˜400.000 g/mol; Carl, Roth) in 100 mM MAT buffer. For the determination of the substrate specificity, chitin powder (5% w/v), glycol chitin (10% v/v), colloidal chitin (5% w/v), chitosan [DA 15-25%, medium molecular weight, Sigma-Aldrich] (5% w/v) and microcrystalline cellulose powder (Sigma Aldrich) (5% w/v) were investigated, respectively. The effect of several potential co-factors on activity was elucidated at a concentration of 1 mM. Additionally, the effect of detergents [SDS 0.5% (w/v), Tween-20 and Triton X-100 both at 0.5% (v/v)] and chemicals (Imidazole 100 mM, EDTA 1 mM) on enzymatic activity was assessed. Samples were incubated in a thermomixer for 16 h at 900 rpm. After incubation, samples were analyzed using the enzyme assay. Thermostability was assessed after incubation of recombinant chitinases at 60° C. for different durations followed by the quantification of residual enzyme activity under standard assay conditions.

[2] = Substrate specificity, reducing end assay; type: biochemical; details: in % activity of chitin powder; 16 h at optimum conditions, 50 mg/ml substrate; remark: listed apart in the source
Protocol: as §1
The preparation of colloidal chitin was similar to the method described by Murthy and Bleakley with some minor differences [Murthy et al., Microbiol., 2012. 10(2): p. 1-5.]. Chitin powder (Carl Roth) was dissolved in concentrated hydrochloric acid (HCl) (5 g in 100 mL) and stirred at 4° C. for 24 h, after which the mixture was centrifuged at 4000×g for 15 min at 4° C. The precipitate was washed to neutral pH with distilled water and stored at 4° C.
as §2

[3] = Enzyme kinetics on chitin powder (Michaelis-Menten non-linear fit); type: biochemical; details: 2 μM enzyme, 0-150 mg/ml chitin powder
Protocol: Enzyme kinetics were determined using chitin powder as a substrate and the optimum enzyme to substrate ratio could be determined as well as Vmax and Km values. The concentrations of chitin powder varied
from 0 mg/ml up to 150 mg/ml while amount of enzyme was kept constant (2 μM). The initial velocities (V0) versus substrate concentration ([S]) were plotted as Lineweaver-Burk and Michaelis-Menten curves using GraphPad software (FIG. 7).
Maximum reaction velocities (Vmax) and Michaelis-Menten constants (Km) were determined using a non-linear fit Michaelis-Menten model (Table 4.6). Thereby, optimum enzyme-substrate ratios were determined that would allow a maximization of substrate conversion rates. Furthermore, the Km indicated the reciprocal enzyme-substrate affinity for C1-C5. Higher Km values reflect an overall lower affinity and thus reduced conversion efficiencies. […] In comparison, higher Km values for C2 and C5 reflected an overall lower affinity to insoluble chitin.
as §2

[4] = Substrate conversion yield from residue substrate after the reaction; type: biochemical; details: residue substrate after the reaction relative to the starting material
Protocol: The overall substrate conversion yield was determined for all maximized solutions after determining the residue substrate after the reaction, relative to the starting material.

Fusarium oxysporum = experiment: Minimum inhibitory concentration (MIC) test on fungal pathogens; type: cell-based; set-up: key: xx = no growth/strong inhibition; x = small inhibition; details: start concentration 100 μg/ml
Fusarium culmorum [5] = experiment: as above; type: cell-based
Protocol: The start concentration of each chitinase used in minimum inhibitory concentration (MIC) tests was 100 μg/ml.
The chitinases were further tested for their protective activity in germination tests. Briefly, the following steps were conducted: • 1. Disinfection of wheat seeds in 10% bleach for 10 minutes in a biosafety cabinet • 2. Germination on filter paper • 3. Foliar application 3 dps (days post seeding) and 1 dbi (day before infection) • 4. 4 dps: add pathogen Fusarium culmorum • 5. Monitoring germination and plant health/phytotox

Fusarium culmorum [6] = type: in vivo; details: wheat, foliar application 3 dps, F. culmorum added 4 dps
D. melanogaster eggs = experiment: Larvae survival after treatment of D. melanogaster eggs; type: in vivo; details: chitinase concentrations from 10% to 0.1%
Protocol: The effects of chitinases on insects was tested on D. melanogaster eggs. Briefly, eggs were treated with chitinase 1 or a control, and larvae survival was assessed 3 days after treatment (DAT). Results for chitinase concentrations of concentration from 10% to 0.1% were as follows: […]

B1: Chitinase 1: chitinolytic enzyme from P. orarium, SEQ ID NO: 1, recombinant with PelB signal peptide and 6×His tag; run 19 = 2 μM alone (protein, listed as Photobacterium orarium)
chain: MAAPGTPQIAWMETDYAIVEVDQAASAYKSLITVKPAAEVPVAWQRYSGETADLWKVKLNGNVVFEQSIAPASSGAGSTTLSVAQGGQYAMTVELCSGTGAAQACTSSAATNIVVADTDGSHLDPLPMNVDANNGNYTTPANTVVGAYFVEWGVYGRKFSVDNIPAQNLTHILYGFIPICGPNESLGEIENGNSLAALNRACQGTPDYEVVIHDPWAAVQMPQPQSGHTHSTPYKGTYGQMMALKQRYPDLKIVPSVGGWTLSDPFYSFTDKAKRDIFVASVKKFLKTWKFFDGVDIDWEFPGGKGANANLGDPVNDGPAYVALMRELRVMLDELEAETGRQYELTSAIGVGYDKIDVVNYADAVQYMDYIFAMTYDFFGGWNNVPGHQTALFCGSHMSADVCNGTGVDENGVPRQGPAYTAAHGIDRLLAQGVPANKLVLGTAMYARGWTGVTEASMTDPTNPMTGTGNGMVPGSWEPGVIDYKDVVTDYINNAAVTKGYDAQAEAPWAYNPSNGNLITYDDRRSVLAKGQYVRNLGLAGLFAWEIDADNGDILNAMQDSLAGGGGNYAPVAKAGADQVVNGAASVTLDGSASSDRDGQIVSYQWTQTSGPALTLTGSDTATATVAVPEVTADTQYAFTLTVTDNAGDTATDSVTVTAKAPGSNTAPVVAVSGPATASAGDTVVLDASQSSDADGDTLTFTWTVPAGVNATVNGATVSFVADSYTVDTPLNFTVAVSDGTDSVTESVTVTVLKDGGSTGCTNAWATGGVYNSGDIVTHSGKSWKAKWWTTGEEPGTTGEWGVWEDLGAANCQIE
modifications: PelB signal peptide; 6xHis tag; Chitinase 1
notes: run 19 = 2 μM alone
Relative activity, Cellulose [1]: 14.3 ± 5.7%
Relative activity, Chitin [1]: 100%
Relative activity, Chitosan [1]: 117.1 ± 9.1%
Relative activity, Colloidal chitin [2]: 159.9 ± 4.8%
Km (enzyme-substrate affinity) [3]: 9.1 mg/mL
Vmax (maximum reaction velocity) [3]: 197.7 U/ml
substrate conversion yield [4]: 18.3±0.5%
growth inhibition of Fusarium oxysporum in the MIC test (Fusarium oxysporum): xx
inhibition of Fusarium culmorum in the MIC assay (Fusarium culmorum [5]): showed inhibition
fungal growth in germination test (Fusarium culmorum [6]): strong inhibition of fungal growth
plant health in germination test (Fusarium culmorum [6]; compared to the control): improved plant health
% mortality (D. melanogaster eggs; 3 days after treatment, control 25): 36%
% survival (D. melanogaster eggs; larvae survival 3 days after treatment, control 75): 64%
